From article PMC9537296 (Scientific Reports, 2022)

Key:
[1] = system: hyperinsulinemic hypoglycemia; conditions: meta-analysis of six cohorts (1142 subjects); cited from earlier work
From the text: Diazoxide, a first-line therapy, is a nondiuretic benzothiadizine originally formulated as a peripheral vasodilator for the treatment of hypertension. […] Octreotide—a synthetic peptide analog of somatostatin—has been frequently used as a second-line therapy to treat patients with CHI who are not res ...

human C1q = human C1q (Homo sapiens, UniProt P02745+P02746+P02747); assay: C1q binding by SPR; conditions: SPR BIACORE T200, test material immobilized, steady-state affinity fit; read-out: Binding affinities (KD) C1q
Sequence of human C1q (P02745 23-245): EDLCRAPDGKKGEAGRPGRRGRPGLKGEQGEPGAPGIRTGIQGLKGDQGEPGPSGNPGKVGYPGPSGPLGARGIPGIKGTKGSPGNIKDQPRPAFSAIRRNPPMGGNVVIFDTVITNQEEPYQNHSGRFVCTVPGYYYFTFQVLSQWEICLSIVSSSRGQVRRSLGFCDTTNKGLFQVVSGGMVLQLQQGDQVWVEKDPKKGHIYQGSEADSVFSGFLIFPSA
Sequence of human C1q (P02746 28-253): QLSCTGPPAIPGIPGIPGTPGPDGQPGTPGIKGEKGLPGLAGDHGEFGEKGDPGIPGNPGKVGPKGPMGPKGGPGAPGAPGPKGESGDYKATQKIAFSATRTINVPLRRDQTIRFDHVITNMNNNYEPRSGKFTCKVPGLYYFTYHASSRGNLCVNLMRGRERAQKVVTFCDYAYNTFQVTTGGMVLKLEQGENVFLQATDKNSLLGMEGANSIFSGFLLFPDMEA
Sequence of human C1q (P02747 29-245): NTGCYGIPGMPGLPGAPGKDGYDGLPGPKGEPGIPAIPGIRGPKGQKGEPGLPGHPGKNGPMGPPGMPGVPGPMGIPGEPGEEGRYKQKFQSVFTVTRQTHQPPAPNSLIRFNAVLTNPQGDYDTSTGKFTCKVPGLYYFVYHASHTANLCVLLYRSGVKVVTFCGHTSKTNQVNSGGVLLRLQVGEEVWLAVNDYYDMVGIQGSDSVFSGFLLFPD
Experimental: The target immobilization of the three materials was 3000 RU. To stabilize the sensor chip, running buffer (HBS-EP) was injected for 10 min, followed by 10 min dissociation at 25 μL/min before test material injection. Then, regeneration buffer was injected for 30 s at 25 μL/min; this step was repeated three times. C1q was diluted with running buffer to 50, 25, 12.5, 6.25, and 3.125 nM and injected for 6 min for association, followed by 10-min dissociation at 25 μL/min. The remaining C1q was regenerated with regeneration buffer for 30 s at 25 μL/min; this step was repeated three times. Binding affinity was evaluated with a steady-state affinity fitting model in BIACORE T200 Evaluation Software version 3.0. Blank-subtracted sensograms (RU form reference channel and blank were subtracted) were used for evaluation.

FcγRIIB/C = target: T1, FcγRIIB/C (Homo sapiens, UniProt P31994); assay: FcγRIIB/C binding by SPR; conditions: SPR BIACORE T200, 25 °C, steady-state affinity fit; read-out: Binding affinities (KD) FcγRIIB/C
T1 construct: purchased
T1 sequence (P31994 43-310): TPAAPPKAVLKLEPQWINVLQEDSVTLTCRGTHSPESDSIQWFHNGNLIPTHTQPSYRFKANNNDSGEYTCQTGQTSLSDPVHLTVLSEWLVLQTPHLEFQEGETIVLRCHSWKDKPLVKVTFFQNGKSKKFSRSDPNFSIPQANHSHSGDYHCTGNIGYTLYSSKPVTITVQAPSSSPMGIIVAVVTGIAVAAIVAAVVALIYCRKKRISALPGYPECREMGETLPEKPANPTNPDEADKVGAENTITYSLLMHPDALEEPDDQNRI
Experimental: All experiments were carried out on a BIACORE T200 instrument (GE Healthcare, USA) at 25 °C. Amine coupling chemistry was used to immobilize FcγRs on the surface of a CM5 sensor chip. For activation, a mixture of NHS and EDC solution was injected onto a CM5 sensor chip for 7 min at a flow rate of 10 μL/min. FcγRIA, FcγRIIA, FcγRIIB/C, FcγRIIIA, and FcγRIIIB were immobilized on CM5 chips by injecting 5 μg/mL of FcγRIA, 10 μg/mL of FcγRIIA, 2 μg/mL of FcγRIIIA, 10 μg/mL of FcγRIIIB, and 10 μg/mL of FcγRIIB/C diluted with 10 mM sodium acetate (pH 4.5) onto CM5 chips at a flow rate of 5 μL/min. The target RU was 1500 RU for FcγRIA and FcγRIIA, 3,000 RU for FcγRIIB/C and FcγRIIIB, and 1,000 RU for FcγRIIIA. To deactivate unreacted moieties, the chip surface was blocked with 1 M ethanolamine/HCl (pH 8.5) for 7 min at a flow rate of 10 L/min. […] The test materials were injected for 10 min (for Fc immobilized with FcγRIA and FcγRIIA) or 15 min (for Fc immobilized with FcγRIIIA, FcγRIIIB, and FcγRIIB/C) for association, followed by 10 min-dissociation at 20 μL/min. Binding affinity was evaluated with a steady-state affinity fitting model in BIACORE T200 Evaluation Software version 3.0. Blank-subtracted sensograms (RU form reference channel and blanks were subtracted) were used for evaluation.

FcγRIA = target: T2, FcγRIA (Homo sapiens, UniProt P12314); assay: FcγRIA binding by SPR; conditions: SPR BIACORE T200, 25 °C, steady-state affinity fit; read-out: Binding affinities (KD) FcγRIA
T2 construct: purchased
T2 sequence (P12314 16-374): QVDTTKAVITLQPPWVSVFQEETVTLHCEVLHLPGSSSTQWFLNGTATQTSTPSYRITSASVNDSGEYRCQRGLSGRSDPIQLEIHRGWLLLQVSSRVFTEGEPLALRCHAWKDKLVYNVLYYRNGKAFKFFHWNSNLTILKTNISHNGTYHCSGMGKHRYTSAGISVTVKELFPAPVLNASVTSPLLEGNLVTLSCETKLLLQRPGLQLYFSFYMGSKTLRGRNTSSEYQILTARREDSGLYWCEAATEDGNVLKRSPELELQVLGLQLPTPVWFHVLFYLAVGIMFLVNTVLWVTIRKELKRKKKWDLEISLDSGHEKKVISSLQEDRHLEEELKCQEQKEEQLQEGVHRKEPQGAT
Experimental: (§1) All experiments were carried out on a BIACORE T200 instrument (GE Healthcare, USA) at 25 °C. Amine coupling chemistry was used to immobilize FcγRs on the surface of a CM5 sensor chip. For activation, a mixture of NHS and EDC solution was injected onto a CM5 sensor chip for 7 min at a flow rate of 10 μL/min. FcγRIA, FcγRIIA, FcγRIIB/C, FcγRIIIA, and FcγRIIIB were immobilized on CM5 chips by injecting 5 μg/mL of FcγRIA, 10 μg/mL of FcγRIIA, 2 μg/mL of FcγRIIIA, 10 μg/mL of FcγRIIIB, and 10 μg/mL of FcγRIIB/C diluted with 10 mM sodium acetate (pH 4.5) onto CM5 chips at a flow rate of 5 μL/min. The target RU was 1500 RU for FcγRIA and FcγRIIA, 3,000 RU for FcγRIIB/C and FcγRIIIB, and 1,000 RU for FcγRIIIA. To deactivate unreacted moieties, the chip surface was blocked with 1 M ethanolamine/HCl (pH 8.5) for 7 min at a flow rate of […]. HMC001 and I.V.-Globulin SN were diluted with running buffer to 500, 250, 125, 62.5, and 31.25 nM. HM15136 was diluted with running buffer to 486, 243, 121.5, 60.75, and 30.38 nM. The test materials were injected for 10 min (for Fc immobilized with FcγRIA and FcγRIIA) or 15 min (for Fc immobilized with FcγRIIIA, FcγRIIIB, and FcγRIIB/C) for association, followed by 10 min-dissociation at 20 μL/min. Binding affinity was evaluated with a steady-state affinity fitting model in BIACORE T200 Evaluation Software version 3.0. […]

FcγRIIA = target: T3, FcγRIIA (Homo sapiens, UniProt P12318); assay: FcγRIIA binding by SPR; conditions: SPR BIACORE T200, 25 °C, steady-state affinity fit; read-out: Binding affinities (KD) FcγRIIA
T3 construct: purchased
T3 sequence (P12318 34-317): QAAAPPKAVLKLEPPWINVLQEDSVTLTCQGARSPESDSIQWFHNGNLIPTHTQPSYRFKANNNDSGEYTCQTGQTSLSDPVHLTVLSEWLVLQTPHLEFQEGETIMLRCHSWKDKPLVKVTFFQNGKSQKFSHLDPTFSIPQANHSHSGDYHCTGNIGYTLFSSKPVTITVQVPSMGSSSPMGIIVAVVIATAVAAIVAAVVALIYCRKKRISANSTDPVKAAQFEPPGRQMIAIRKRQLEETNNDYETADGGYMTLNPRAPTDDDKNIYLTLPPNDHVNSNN
Experimental: as §1

FcγRIIIB = target: T4, FcγRIIIB (Homo sapiens, UniProt O75015); assay: FcγRIIIB binding by SPR; conditions: SPR BIACORE T200, 25 °C, steady-state affinity fit; read-out: Binding affinities (KD) FcγRIIIB
T4 construct: purchased
T4 sequence (O75015 17-233): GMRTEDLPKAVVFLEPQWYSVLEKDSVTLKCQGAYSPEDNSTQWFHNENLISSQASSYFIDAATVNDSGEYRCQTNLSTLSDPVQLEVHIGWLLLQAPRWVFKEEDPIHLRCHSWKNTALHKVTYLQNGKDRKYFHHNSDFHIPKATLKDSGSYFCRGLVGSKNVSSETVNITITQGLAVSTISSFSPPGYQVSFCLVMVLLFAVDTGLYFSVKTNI
Experimental: as §1

FcγRIIIA = target: T5, FcγRIIIA (Homo sapiens, UniProt P08637); assay: FcγRIIIA binding by SPR; conditions: SPR BIACORE T200, 25 °C, steady-state affinity fit; read-out: Binding affinities (KD) FcγRIIIA
T5 construct: purchased
T5 sequence (P08637 17-254): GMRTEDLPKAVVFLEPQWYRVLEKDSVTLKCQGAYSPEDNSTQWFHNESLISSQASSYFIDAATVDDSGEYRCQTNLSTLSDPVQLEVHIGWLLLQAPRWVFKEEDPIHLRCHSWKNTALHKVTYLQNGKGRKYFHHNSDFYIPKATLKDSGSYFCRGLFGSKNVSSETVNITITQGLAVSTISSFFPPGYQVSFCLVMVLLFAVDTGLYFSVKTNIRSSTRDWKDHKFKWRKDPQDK
Experimental: as §1

| Compound | response rate [1] | Kd (human C1q) | Kd (FcγRIIB/C) | Kd (FcγRIA) | Kd (FcγRIIA) | Kd (FcγRIIIB) | Kd (FcγRIIIA) |
| --- | --- | --- | --- | --- | --- | --- | --- |
| CC1=NS(=O)(=O)c2cc(Cl)ccc2N1 [diazoxide, Diazoxide] | 71% | – | – | – | – | – | – |
| HMC001: Fc fragment of human immunoglobulin G4, derived from Escherichia coli, lacks glycosylation | – | > 0.5 µM | > 0.5 µM | > 0.5 µM | > 0.5 µM | > 0.5 µM | > 0.5 µM |
